Reference: PMC6776665, “A tri-ionic anchor mechanism drives Ube2N-specific recruitment and K63-chain ubiquitination in TRIM ligases” (Nature Communications, 2019)

Tests used:
ubiquitin (WT) = target: T1, ubiquitin (WT) (UniProt P0CG48 1-76); experiment: crystal structure; T21-R with Ube2N^C87K/K92A~Ub, 2.8 Å, space group P1, two complexes in the asymmetric unit (2xT21-R, 2xUbe2N~Ub); conditions: both partners purified
T1 construct: WT ubiquitin, the cut product of the ubiquitin precursor (G76 printed as the residue linked to Ube2N); In the rows of the crystal structure it is the ubiquitin moiety of the conjugate m8, linked by G76 to Ube2N K87; source: E. coli Rosetta 2 DE3, purified (perchloric acid precipitation, cation exchange, SEC)

[1] = target: the molecule itself; experiment: as above

B1: TRIM21-RING (residue 1-85) (domain or fragment)
chain: GSHMASAARLTMMWEEVTCPICLDPFVEPVSIECGHSFCQECISQVGKGGGSVCPVCRQRFLLKNLRPNRQLANMVNNLKEISQEARE
notes: tripeptide scar left at the N-terminus after cleavage of the GST tag; TRIM21 RING domain (T21-R), residues 1-85; Wild-type RING; a RING dimer in the crystal (2xT21-R and 2xUbe2N~Ub in the asymmetric unit); also called T21-R; TRIM21 RING domain; source: E. coli C41 DE3 or BL21 DE3, purified (glutathione sepharose, tag cleaved on beads, SEC); not shown: GST, N-terminal, cleaved
- binding result (ubiquitin (WT)): binds
- binding result [1]: binds
